Results: the supplement of paper PMC9170038

Test system: MS2 coat protein
Assay: apparent KD of MS2 coat protein; designed switch direction (-1 OFF switch, 1 ON switch): -1; higher = weaker reporter binding
Outline: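 Designed RNA switches with common flanks were made on Illumina chips by stalled E. coli RNA polymerase. Titration with SNAP-549-labelled MS2 coat protein doubled from 0.7 or 1.5 nM up to 3 µM. Apparent KD is each design's median over clusters after curve-fitting normalised fluorescence.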

[1] = Eterna round: R95, input ligand: microRNA oligo, concentration not stated
[2] = input ligand: microRNA oligo, concentration not stated

Row | Sequence | apparent KD of MS2 coat protein (input ligand: FMN 200 uM) | apparent KD of MS2 coat protein (input ligand: none) | also measured
1 | CCUCUACAUGAGGAUCACCCAUGUGAGGAUAUCAGUGCAAAAGGCACGUAAUAAAUCGUGAGAAGGCACAUGGG [EX1 A.15] (Eterna round: R97, puzzle: Exclusion 1) | 24 nM | 112 nM | –
2 | CCUCUAUUUGUGAGGAUAUCGGUAAACUGGAUUGUCGAGAAGGCACAUGAGGAUCACCCAUGUAUUGAACAGCA [JR_BMEx4_Sub021] (Eterna round: R97, puzzle: Brourd's mod of Exclusion 4) | 203 nM | 31.2 nM | –
3 | CCUCUGUCAGGAUAUCGUGCAUACAACGAAAGUUCUAUGUGCGAGAAGGGACAUGAGGAUCACCCAUGUUUGCG [Omei Ex4 A21] (Eterna round: R97, puzzle: Exclusion 4) | 225 nM | 62.5 nM | –
4 | CCUCUGUUAGGAUAUCAAACACUAUCUGCUCCAGAGUUAAGUGAGAAGGGACAUGAGGAUCACCCAUGUAAAAU [Isreusraar] (puzzle: Exclusion 4) | – | – | apparent KD of MS2 coat protein [1]: 26.2 nM
5 | CCUGCACAUGAGGAUCACCCAUGUCAGGAUAUCUCGCCGUCGGCUUGCCGACGGUAUUAGAGAAGGGACAAGGG [JL Tixe mod 2] (puzzle: Exclusion 1) | – | – | apparent KD of MS2 coat protein [1]: 21.9 nM
6 | CCUGUGUGAGGAUAUGGUGUUGGCCAAAAGGAAUAGCUCCUCCAGAAGGCACAUGAGGAUCACCCAUGUCGUGG [Jolly's Folly 23 - Jieux - Exclusion 4] (Eterna round: R96, puzzle: Exclusion 4) | 138 nM | 60.2 nM | apparent KD of MS2 coat protein [2]: 50.3 nM
7 | CCUUUGUCAGGAUAUCAGAACACGCCCGUAGGGAGUGCAAAUGAGAAGGGACAUGAGGAUCACCCAUGUACAGA [Leonveti] (puzzle: Exclusion 4) | – | – | apparent KD of MS2 coat protein [1]: 29.4 nM
8 | CGAAAGGUAGGAUAUACGAAGAAAAAGGGUAGAAGAAGAACACAUGAGGAUCACCCAUGUAGAAGGACCAAAGC [Mat - Exclusion 2 - Mod of my Tesla design - D16] (puzzle: Exclusion 2) | – | – | apparent KD of MS2 coat protein (Eterna round: R95, input ligand: FMN 200 uM): 65.1 nM; apparent KD of MS2 coat protein [1]: 22.1 nM; apparent KD of MS2 coat protein (Eterna round: R95, input ligand: none): 20.5 nM
9 | CGAACCCGAGGAUAUCGUAAACCCGACAUGAGGAUCACCCAUGUCAUCCUCACGGCGCCACGAGAAGGCGGUGUUU [Leinat] (puzzle: Exclusion 5) | – | – | apparent KD of MS2 coat protein [1]: 43.7 nM
10 | CGAAGUACGUAAGGAUAUACCGUGAGGACAACGGUAGAAGGUACAACAACAUGAGGAUCACCCAUGUGGACCUCUCGGCGUUGU [Eternabot solution 19] (Eterna round: R96, puzzle: Exclusion NG 1) | – | – | apparent KD of MS2 coat protein [2]: 309 nM
11 | CGAAUUAUAGGAUAUACAUGAGGAUCACCCAUGUAACCGUGACUGGGAUGCGUCUCAAGUAGAAGGAUAGGCGC [Eternabot (L1) Solution 9] (Eterna round: R97, puzzle: Exclusion 3) | 27.2 nM | 14.3 nM | –
12 | CGACGUAAAGGAUAUACAUGAGGAUCACCCAUGUCCCUACAAUGAGUAGGUACACGCAGUAGAAGGUUACUUCG [Eternabot (Original) Solution 15] (Eterna round: R97, puzzle: Exclusion 3) | 107 nM | 37 nM | –
13 | CGACUGUGAGGAUAUGGUGAGUAGUGCCUGAGCGCUGCUCACCAGAAGGCACAUGAGGAUCACCCAUGUAUAGC [Mat - Exclusion 4 - Mod of JL - D9] (puzzle: Exclusion 4) | – | – | apparent KD of MS2 coat protein [1]: 31.7 nM
14 | CGAGCUUUUUGCUCGUCUUACAUGAGGAUCACCCAUGUCAAACAAACAAACAAACGAAAGUUUGUUUGUUUGUUUGA [Mod of sellena 2] (Eterna round: R97, puzzle: Sensor, turn-off variant 1) | 29.4 nM | 30 nM | –
15 | CGAUAAAAGUGAGGAUAUGAGGAGAGAGAGAGAUCAGAAGGCACACAUGAGGAUCACCCAUGUGAGUUCUCGAAAUUAAAUAUU [Prohibition 49 - Jieux - Exclusion NG 1] (Eterna round: R96, puzzle: Exclusion NG 1) | 15.2 nM | 18 nM | apparent KD of MS2 coat protein [2]: 11.4 nM
16 | CGAUAAAGCUGAGGAUAUGAGAAUAGAAAGAAAUCAGAAGGCAGACAUGAGGAUCACCCAUGUGAGUUCUCGAGAUUAGAUAUU [Prohibition 47 - Jieux - Exclusion NG 1] (Eterna round: R96, puzzle: Exclusion NG 1) | – | – | apparent KD of MS2 coat protein [2]: 22.2 nM
17 | CGAUAUAACGUAGGAUAUCUGAGAAAUAGAUGAAGAGAAGGACGACAUGAGGAUCACCCAUGUGAUCUAUCAAUAUUAUACAUG [Prohibition 96 - Jieux - Exclusion NG 1] (Eterna round: R96, puzzle: Exclusion NG 1) | 722 nM | 604 nM | apparent KD of MS2 coat protein [2]: 694 nM
18 | CGAUAUAAGUCAGGAUAUGAGCGCAACUGACGAUCAGAAGGGACACAUGAGGAUCACCCAUGUGAUUUAUCAAUAUUAUACAUC [Prohibition 91 - Jieux - Exclusion NG 1] (Eterna round: R96, puzzle: Exclusion NG 1) | 36.5 nM | 31.6 nM | apparent KD of MS2 coat protein [2]: 27.3 nM

Row | Sequence | apparent KD of MS2 coat protein (input ligand: FMN 200 uM) | apparent KD of MS2 coat protein (input ligand: none) | also measured
19 | CGAUCGGAAGGAUAUACACCUCACGUCAAACGGACAACCGGACAUGAGGAUCACCCAUGUAGAAGGUCCAAAAU [Tetixeve] (puzzle: Exclusion 2) | – | – | apparent KD of MS2 coat protein [1]: 55.7 nM
20 | CGAUGAGGAGUGAGGAUAUCGUGUUCGAAAGAACGUGAGAAGGCACAUGAGGAUCACCCAUGUGAUCCUUGUCG [Omei Ex4B A9] (Eterna round: R97, puzzle: Brourd's mod of Exclusion 4) | 57.2 nM | 30.4 nM | –
21 | CGAUGAGGAGUGAGGAUAUCGUGUUCGAAAGAACGUGAGAAGGCACAUGAGGAUCACCCAUGUGAUUCUUAUCG [Omei Ex4B A19] (Eterna round: R97, puzzle: Brourd's mod of Exclusion 4) | 77 nM | 25.5 nM | –
22 | CGAUGCUCGUGUCCACAUGAGGAUCACCCAUGUCGAGUUAGCGAGGAUAUCGGUAGCACAUAGCACGAGAAGGCGCGAACCUGA [Ex NG3 #28] (Eterna round: R96, puzzle: Exclusion NG 3) | 58.4 nM | 22 nM | apparent KD of MS2 coat protein [2]: 15.9 nM
23 | CGCAUACUAGGAUAUACAUGAGGAUCACCCAUGUCGCCGGGCCCACUCAUACUAAAACGUAGAAGGAGUUUGCC [Enlalari] (puzzle: Exclusion 3) | – | – | apparent KD of MS2 coat protein [1]: 16.5 nM
24 | CGCAUGUAAGGAUAUUAGUAGUAGUCAGAAUAGACUAUUACUGAGAAGGUACAUGAGGAUCACCCAUGUCAGCG [Eli x4 4.17] (Eterna round: R97, puzzle: Exclusion 4) | 361 nM | 56.4 nM | –
25 | CGCCAUCGAGUGAGGAUAUCAGGUAAAGGUGUACAUGAGAAGGCACUUGAGGAUCACCCAAGUAUUAAAGAAAA [Mareat] (Eterna round: R97, puzzle: Brourd's mod of Exclusion 4) | 356 nM | 48.3 nM | –
26 | CGCUACGAAGUCAGGAUAUCAGAACAAGAUAAAUAUGAGAAGGGACAUGAGGAUCACCCAUGUUCGGUGGUAGC [BmEX4 A.14] (Eterna round: R97, puzzle: Brourd's mod of Exclusion 4) | 24.6 nM | 21.1 nM | –
27 | CGCUAGUCAGGAUAUACGAACAUGUCAAAAGACGUGAAGGGACAUGAGGAUCACCCAUGUAGAAGGGACUAGCU [salish99_ex2_r3_013] (puzzle: Exclusion 2) | – | – | apparent KD of MS2 coat protein [1]: 24.7 nM
28 | CGCUGGACAGGAUAUGUUCUUGGGCACUUGAGGAUCACCCAAGUCAUCAAGAACUCAGGCACAGAAGGGUUUAUGG [salish99_ex5_r4_018] (Eterna round: R97, puzzle: Exclusion 5) | 41.5 nM | 18.9 nM | –
29 | CGCUGGGCAGGAUAUGUUCUUGAGCACUUGAGGAUCACCCAAGUCAUCAAGAACUCAGGCACAGAAGGGUUUAUGG [salish99_ex5_r4_017] (Eterna round: R97, puzzle: Exclusion 5) | 10.5 nM | 13.4 nM | –
30 | CGCUGGUGAGGAUAUGGGUGUGGUUACAUGAGGAUCACCCAUGUGGAGUCGCAUGUGGGUCCAGAAGGCGCGGGUG [-25.2, -23.4 kcal, 18% A] (Eterna round: R97, puzzle: Exclusion 5) | 158 nM | 215 nM | –
31 | CGGACCCGAGGAUAUCGUAAACCCGACAUGAGGAUCACCCAUGUCAUCCUCACGGCGCCACGAGAAGGCGGUGUUA [Ansolaedra] (puzzle: Exclusion 5) | – | – | apparent KD of MS2 coat protein [1]: 21.8 nM
32 | CGGAGACAUGAGGAUCACCCAUGUGAGGAUAUGGCGUGCGCUACUAAAGGUGGUUGCUCCAGAAGGCGCGGUGU [Eternabot (L1) Solution 3] (Eterna round: R97, puzzle: Exclusion 1) | 74.5 nM | 65.2 nM | –
33 | CGGCGCCUAGGAUAUACUCUGAGAAUCAGUUGGGUCUCCGGACAUGAGGAUCACCCAUGUAGAAGGAGGAAGCU [EX2 C.11] (Eterna round: R97, puzzle: Exclusion 2) | 21.3 nM | 18.4 nM | –
34 | CGGCGGGCAGGAUAUGGUAAUAAUUACAUGAGGAUCACCCAUGUAGAUAUAUGGGAAUAACCAGAAGGGCUUGUUG [-20.5, -20.3 kcal, A 32%] (Eterna round: R97, puzzle: Exclusion 5) | 19.7 nM | 28.7 nM | –
35 | CGGCUACGAUGAGGAUAUACGCACAUGAGGAUCACCCAUGUAAAUCACGGGUAAAGAUCGCCAUCGUAGAAGGCAUAAGGGCCC [Orsole] (Eterna round: R96, puzzle: Exclusion NG 2) | 80.3 nM | 80.2 nM | apparent KD of MS2 coat protein [2]: 49.6 nM
